Assays:
[1] = biological target: native α7 nicotinic acetylcholine receptor in interneurons of CA1 stratum radiatum, rat hippocampal slices (rat (endogenous in hippocampal slices)) (UniProt Q05941)
[2] = biological target: human α3β4 nicotinic acetylcholine receptor expressed in X. laevis oocytes (human) (UniProt P32297)
[3] = biological target: human homomeric α7 nicotinic acetylcholine receptor expressed in X. laevis oocytes (human) (UniProt P36544)
[4] = biological target: T1, α7-nAChR (native, rat hippocampal CA1 interneurons) (Rattus norvegicus, UniProt Q05941); experiment: whole-cell patch clamp, hippocampal slices; conditions: agonist; 1 mM choline pulses, 22°C, -60 mV, pH 7.4
T1 construct: gene Chrna7; native receptor in CA1 stratum radiatum interneurons of hippocampal slices
T1 sequence (Q05941 23-502): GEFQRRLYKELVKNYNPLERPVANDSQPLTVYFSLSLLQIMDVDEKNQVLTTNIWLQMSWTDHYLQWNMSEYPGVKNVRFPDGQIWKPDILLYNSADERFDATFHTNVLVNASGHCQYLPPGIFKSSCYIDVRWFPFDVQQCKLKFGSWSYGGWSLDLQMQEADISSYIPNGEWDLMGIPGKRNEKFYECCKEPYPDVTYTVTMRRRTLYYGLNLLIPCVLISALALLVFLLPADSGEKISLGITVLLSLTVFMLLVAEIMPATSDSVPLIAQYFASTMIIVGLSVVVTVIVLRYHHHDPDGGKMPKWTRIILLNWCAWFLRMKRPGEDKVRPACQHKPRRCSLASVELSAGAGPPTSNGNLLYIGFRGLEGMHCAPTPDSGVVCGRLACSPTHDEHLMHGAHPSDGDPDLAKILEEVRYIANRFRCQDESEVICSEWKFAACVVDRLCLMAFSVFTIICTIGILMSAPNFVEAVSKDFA

LRP6 (Homo sapiens) = LRP6 (Homo sapiens) (UniProt O75581); conditions: cited from earlier work
Chain of LRP6 (Homo sapiens) (O75581 20-1370): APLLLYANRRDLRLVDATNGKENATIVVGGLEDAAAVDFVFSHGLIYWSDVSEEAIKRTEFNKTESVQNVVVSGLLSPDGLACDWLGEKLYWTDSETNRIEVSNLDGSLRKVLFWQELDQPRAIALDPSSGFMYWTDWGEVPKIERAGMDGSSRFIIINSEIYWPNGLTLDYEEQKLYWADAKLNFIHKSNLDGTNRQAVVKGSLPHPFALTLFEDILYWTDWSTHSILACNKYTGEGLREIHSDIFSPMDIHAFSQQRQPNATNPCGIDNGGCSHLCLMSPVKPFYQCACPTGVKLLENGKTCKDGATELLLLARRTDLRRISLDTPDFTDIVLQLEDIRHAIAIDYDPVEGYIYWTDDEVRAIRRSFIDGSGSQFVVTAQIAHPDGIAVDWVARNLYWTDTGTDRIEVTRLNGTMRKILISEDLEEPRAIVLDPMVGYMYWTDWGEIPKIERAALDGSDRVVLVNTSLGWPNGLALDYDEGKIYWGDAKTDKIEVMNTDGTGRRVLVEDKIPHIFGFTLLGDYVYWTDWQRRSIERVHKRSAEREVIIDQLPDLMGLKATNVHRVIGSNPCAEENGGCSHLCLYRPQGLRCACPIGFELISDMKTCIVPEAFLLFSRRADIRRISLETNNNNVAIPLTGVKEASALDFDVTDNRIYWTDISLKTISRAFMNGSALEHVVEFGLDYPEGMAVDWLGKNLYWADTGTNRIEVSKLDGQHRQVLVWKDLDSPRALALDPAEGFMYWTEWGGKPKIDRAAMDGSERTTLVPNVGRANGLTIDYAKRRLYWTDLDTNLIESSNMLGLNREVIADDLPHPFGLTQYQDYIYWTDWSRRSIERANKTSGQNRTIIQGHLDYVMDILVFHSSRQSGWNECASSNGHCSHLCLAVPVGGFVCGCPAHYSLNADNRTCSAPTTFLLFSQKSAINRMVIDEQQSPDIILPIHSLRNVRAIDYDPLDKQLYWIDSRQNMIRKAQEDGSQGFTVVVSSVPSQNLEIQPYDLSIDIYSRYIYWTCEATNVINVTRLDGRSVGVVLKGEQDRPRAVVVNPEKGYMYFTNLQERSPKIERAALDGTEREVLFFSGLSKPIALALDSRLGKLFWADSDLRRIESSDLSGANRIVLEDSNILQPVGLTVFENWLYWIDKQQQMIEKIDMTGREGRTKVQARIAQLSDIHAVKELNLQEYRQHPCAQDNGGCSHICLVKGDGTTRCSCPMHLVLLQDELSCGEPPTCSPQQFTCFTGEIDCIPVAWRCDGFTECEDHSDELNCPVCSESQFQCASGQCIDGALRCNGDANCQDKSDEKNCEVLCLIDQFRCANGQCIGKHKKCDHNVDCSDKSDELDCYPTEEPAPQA

[5] = biological target: human homomeric α7 nicotinic acetylcholine receptor expressed in X. laevis oocytes (human) (UniProt P36544); remark: listed apart in the source

Chain of human homomeric α7 nicotinic acetylcholine receptor expressed in X. laevis oocytes (human) (P36544 23-502): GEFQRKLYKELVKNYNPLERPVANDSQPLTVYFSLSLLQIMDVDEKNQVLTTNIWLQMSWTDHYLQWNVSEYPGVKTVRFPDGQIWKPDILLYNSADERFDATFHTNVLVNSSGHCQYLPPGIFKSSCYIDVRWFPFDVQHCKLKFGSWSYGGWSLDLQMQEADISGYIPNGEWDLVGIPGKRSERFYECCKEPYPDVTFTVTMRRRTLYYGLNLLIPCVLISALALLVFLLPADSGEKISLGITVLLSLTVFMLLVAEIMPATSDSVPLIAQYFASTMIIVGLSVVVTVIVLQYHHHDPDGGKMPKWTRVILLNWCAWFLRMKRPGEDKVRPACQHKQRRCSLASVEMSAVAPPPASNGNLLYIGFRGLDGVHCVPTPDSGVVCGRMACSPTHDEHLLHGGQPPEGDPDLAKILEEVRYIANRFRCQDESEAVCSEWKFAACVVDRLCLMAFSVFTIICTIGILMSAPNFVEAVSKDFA
Chain of native α7 nicotinic acetylcholine receptor in interneurons of CA1 stratum radiatum, rat hippocampal slices (rat (endogenous in hippocampal slices)) (Q05941 23-502): as the sequence (Q05941 23-502) above
Chain of human α3β4 nicotinic acetylcholine receptor expressed in X. laevis oocytes (human) (P32297 32-505, chain 1 of 2): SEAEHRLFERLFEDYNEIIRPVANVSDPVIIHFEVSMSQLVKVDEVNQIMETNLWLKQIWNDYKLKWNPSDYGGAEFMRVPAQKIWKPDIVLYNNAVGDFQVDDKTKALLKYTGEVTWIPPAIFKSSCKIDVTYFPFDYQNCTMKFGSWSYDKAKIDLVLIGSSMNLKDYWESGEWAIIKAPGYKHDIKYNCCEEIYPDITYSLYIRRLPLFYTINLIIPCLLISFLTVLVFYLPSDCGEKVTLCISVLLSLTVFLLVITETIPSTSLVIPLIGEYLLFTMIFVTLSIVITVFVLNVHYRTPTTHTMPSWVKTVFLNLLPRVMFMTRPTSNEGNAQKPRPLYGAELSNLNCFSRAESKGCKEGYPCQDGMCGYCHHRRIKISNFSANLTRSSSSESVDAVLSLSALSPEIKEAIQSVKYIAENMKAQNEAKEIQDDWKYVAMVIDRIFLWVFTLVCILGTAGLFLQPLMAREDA
Chain of human α3β4 nicotinic acetylcholine receptor expressed in X. laevis oocytes (human) (P30926 22-498, chain 2 of 2, further chain): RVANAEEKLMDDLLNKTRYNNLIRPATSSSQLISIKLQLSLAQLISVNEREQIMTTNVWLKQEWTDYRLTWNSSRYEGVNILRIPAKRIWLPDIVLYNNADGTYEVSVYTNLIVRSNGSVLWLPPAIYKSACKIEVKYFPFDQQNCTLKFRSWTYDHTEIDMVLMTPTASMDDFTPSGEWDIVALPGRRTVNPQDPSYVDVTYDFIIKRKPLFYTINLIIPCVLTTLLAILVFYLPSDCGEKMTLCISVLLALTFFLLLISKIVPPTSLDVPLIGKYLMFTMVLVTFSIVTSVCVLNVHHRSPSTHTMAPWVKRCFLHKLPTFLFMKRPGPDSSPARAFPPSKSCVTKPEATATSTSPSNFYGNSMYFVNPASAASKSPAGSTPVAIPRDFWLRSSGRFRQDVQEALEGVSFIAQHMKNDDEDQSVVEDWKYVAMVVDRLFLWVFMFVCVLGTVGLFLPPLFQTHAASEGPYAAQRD

recombinant water-soluble variant of human Lypd6 containing the isolated three-finger LU-domain (ws-Lypd6) (domain or fragment)
amplitude of choline-evoked currents (1 mM choline) with 1 μM ws-Lypd6, whole-cell patch clamp in rat hippocampal slices with 8 μM DhβE; reversed by washout (% of the control value) [1]: 72 | IC50 of inhibition of ACh-evoked currents (100 μM ACh, 5 min pre-incubation), two-electrode voltage clamp, X. laevis oocytes [2]: 34.9 µM | IC50 of inhibition of ACh-evoked currents (100 μM ACh, 15 s pre-incubation), two-electrode voltage clamp, X. laevis oocytes [3]: 10.9 µM

C[N+](C)(C)CCO [Choline]
whole-cell patch clamp, hippocampal slices [4]: Application of choline induced the robust currents in the interneurons of CA1 str. radiatum

Lypd6 (from UniProt Q86Y78)
Kd (LRP6 (Homo sapiens)): 1 µM

B1: isolated water-soluble LU-domain of Lypd6b (ws-Lypd6b) (domain or fragment)
chain: FKCFTCENAGDNYNCNRWAEDKWCPQNTQYCLTVHHFTSHGRSTSITKKCASRSECHFVGCHHSRDSEHTECRSCCEGMICNVELPTNHTNAVFA
reduction of the ACh-evoked current amplitude by 30 μM ws-Lypd6b (100 μM ACh), two-electrode voltage clamp, X. laevis oocytes [5]: 20%

From article PMC8494132, “Human Three-Finger Protein Lypd6 Is a Negative Modulator of the Cholinergic System in the Brain” (Frontiers in Cell and Developmental Biology, 2021)
